The data set deals with the molecule itself. The data set can be described thus: native gel or EMSA; native PAGE (no SDS, no β-ME) of lysates of CHO-TrkBdelECD365-eGFP cells treated with vehicle, BDNF or MM12 (1.0 nM, 37 °C); Western blot with MM12. (In general: In EMSA bound probe runs differently from free probe, usually more slowly.)

B1: TrkBdelECD365-eGFP (human truncated TrkB lacking the ECD up to residue 365, EJM retained) (domain or fragment)
chain: not shown
notes: EJM, transmembrane and intracellular parts retained; amplified from pGFP-hTrkB with the printed primers; The signal peptide of the vector pGFP-hTrkB is not described; also called hTrkBdelECD365-eGFP; TrkB lacking ECD365; source: CHO cells, stably transfected (CHO-TrkBdelECD365-eGFP), in lysate; not shown: eGFP, C-terminal, kept
With B1, the stoichiometry N (usually a count of units in the complex or per binding partner) stood at 2.
